Target: CTLA-4 Ig functionalized with GzmB substrate (UniProt P16410)
Sequence (P16410 38-161): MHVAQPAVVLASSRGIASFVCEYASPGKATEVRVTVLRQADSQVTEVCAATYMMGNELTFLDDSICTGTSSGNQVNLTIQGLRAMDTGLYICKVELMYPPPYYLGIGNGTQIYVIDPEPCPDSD

B1: complement component S1 (enzyme, UniProt P09871 16-688, looked up, species assumed)
Complement C1s subcomponent: EPTMYGEILSPNYPQAYPSEVEKSWDIEVPEGYGIHLYFTHLDIELSENCAYDSVQIISGDTEEGRLCGQRSSNNPHSPIVEEFQVPYNKLQVIFKSDFSNEERFTGFAAYYVATDINECTDFVDVPCSHFCNNFIGGYFCSCPPEYFLHDDMKNCGVNCSGDVFTALIGEIASPNYPKPYPENSRCEYQIRLEKGFQVVVTLRREDFDVEAADSAGNCLDSLVFVAGDRQFGPYCGHGFPGPLNIETKSNALDIIFQTDLTGQKKGWKLRYHGDPMPCPKEDTPNSVWEPAKAKYVFRDVVQITCLDGFEVVEGRVGATSFYSTCQSNGKWSNSKLKCQPVDCGIPESIENGKVEDPESTLFGSVIRYTCEEPYYYMENGGGGEYHCAGNGSWVNEVLGPELPKCVPVCGVPREPFEEKQRIIGGSDADIKNFPWQVFFDNPWAGGALINEYWVLTAAHVVEGNREPTMYVGSTSVQTSRLAKSKMLTPEHVFIHPGWKLLEVPEGRTNFDNDIALVRLKDPVKMGPTVSPICLPGTSSDYNLMDGDLGLISGWGRTEKRDRAVRLKAARLPVAPLRKCKEVKVEKPTADAEAYVFTPNMICAGGEKGMDSCKGDSGGAFAVQDPNDKTKFYAAGLVSWGPQCGTYGLYTRVKNYVDWIMKTMQENSTPRED
in vitro cleavage assay: no cross-cleavage by matrix, complement, or immune proteases

Source: US20220185889
